{
  "source": "paper PMC4864540",
  "about": "“Isolation and Characterization of a Broad Spectrum Bacteriocin from Bacillus amyloliquefaciens RX7” (BioMed Research International, 2016)",
  "key": {"[1]": {"test_system": "L. monocytogenes ATCC 19114", "assay": "pH stability of antimicrobial activity", "assay_type": "physicochemical, Listeria monocytogenes", "details": "for Residual activity (%): 2 h at 37°C, residual activity against L. monocytogenes ATCC 19114", "protocol": "To evaluate pH stability, the pH of crude bacteriocin solution was adjusted with 1 N HCl and 1 N NaOH and readjusted to pH 7 after incubation for 2 h at 37°C. To evaluate thermal stability, the crude bacteriocin solution was incubated at 4, 37, 50, 80, and 100°C for 15–30 minutes. All samples were cooled to room temperature before activity assays. To analyze sensitivity to various enzymes, the crude bacteriocin solution was treated at 37°C for 2 h with 10 mg/mL (final concentration) of the following enzymes: α-amylase, α-chymotrypsin, lipase, proteinase-K, pepsin, or trypsin. All enzymes used were from Sigma (USA) and Takara (Japan). The samples were then boiled for 2 min to denature the enzymes and cooled to room temperature. Samples were exposed to various organic solvents at a final concentration of 10% (v/v) to explore their effects on bacteriocin activity. After incubation for 2 h at 37°C, the residual activity was recorded. All treated samples were tested for residual activity against L. monocytogenes ATCC 19114, as described above."}, "[2]": {"test_system": "L. monocytogenes ATCC 19114", "assay": "Mode of action, time-kill study (viable cell count)", "assay_type": "cell-based, Listeria monocytogenes", "details": "80 AU/mL added to L. monocytogenes at 4.2 × 10^8 CFU/mL, mid-exponential phase, viable counts at 1-hour intervals, mean of three experiments", "protocol": "To determine the mode of action of the bacteriocin, the crude bacteriocin was added at a final concentration of 80 AU/mL to the culture at the mid-exponential growth phase of L. monocytogenes ATCC 19114 in 20 mL of TSB medium. Viable cells were counted at 1-hour intervals for the next 8 hours. Viable cell counting was repeated in triplicate and the mean values were calculated."}, "[3]": {"test_system": "Salmonella enteritidis KVCC-BA0700654", "assay": "Agar well diffusion assay", "assay_type": "cell-based", "details": "cell-free supernatant, medium NB", "protocol": "(§1) Soil samples were collected from a farm in Cheonan city, Korea. They were mixed with sterile water (1 : 10, w/v), homogenized, and heated at 50°C for 60 min in a water bath. One mL of this suspension was inoculated into 100 mL of tryptic soy broth (Difco, USA) and incubated at 50°C for 24 h, after which microbial growth was monitored based on changes in turbidity of the cultures. Aliquots of the cultures were inoculated onto TSB plates, incubated at 30°C, and single colonies were isolated and screened for antimicrobial activity. The antimicrobial activity was performed according to Ramachandran et al. with modifications. It was expressed as the diameter of the inhibition zones around the wells using agar well diffusion assays with Listeria monocytogenes ATCC 19114 as the indicator strain.\n(§2) Antimicrobial activity was detected using the agar well diffusion assay and tested against all indicator strains (Table 1) grown in their respective media, as indicated (Difco, USA). An aliquot of culture was centrifugated at 6,000 g for 15 min at 4°C (Mega 21R, Hanil Co., Republic of Korea), filtered using 0.45 μm pore-size cellulose acetate syringe filters (Advantec Co., Japan) to remove cells, then applied to wells on agar plates. Experiments were done in no less than five individual trials having no less than three replications.\n(§3) The plates were incubated at the optimal temperature of the test organism. The bacteriocin titer was determined using the serial twofold dilution method. Activity was defined as the reciprocal of the dilution after the last serial dilution giving a zone of inhibition and was expressed as activity units (AU) per milliliter. All measurements were done in triplicate and the means are shown as the results."}, "[4]": {"test_system": "Pseudomonas aeruginosa KCCM 11266", "assay": "Agar well diffusion assay", "assay_type": "cell-based", "details": "cell-free supernatant, medium NB", "protocol": "as §1, §2, §3"}, "[5]": {"test_system": "Staphylococcus aureus subsp. aureus (MRSA) KCCM 40510", "assay": "Agar well diffusion assay", "assay_type": "cell-based", "details": "cell-free supernatant, medium NB", "protocol": "as §1, §2, §3"}, "[6]": {"test_system": "Shigella flexneri KCCM 40414", "assay": "Agar well diffusion assay", "assay_type": "cell-based", "details": "cell-free supernatant, medium NB", "protocol": "as §1, §2, §3"}, "[7]": {"test_system": "Salmonella pullorum KVCC-BA0702509", "assay": "Agar well diffusion assay", "assay_type": "cell-based", "details": "cell-free supernatant, medium NB", "protocol": "as §1, §2, §3"}, "[8]": {"test_system": "Candida albicans KCTC 7122", "assay": "Agar well diffusion assay", "assay_type": "cell-based", "details": "cell-free supernatant, medium PDA", "protocol": "as §1, §2, §3"}, "[9]": {"test_system": "Pseudomonas aeruginosa CCARM 2003", "assay": "Agar well diffusion assay", "assay_type": "cell-based", "details": "cell-free supernatant, medium LB", "protocol": "as §1, §2, §3"}, "[10]": {"test_system": "Enterococcus faecalis (VRE) CCARM 0011", "assay": "Agar well diffusion assay", "assay_type": "cell-based", "details": "cell-free supernatant, medium NB", "protocol": "as §1, §2, §3"}, "[11]": {"test_system": "Lactobacillus salivarius CPM7 (our isolate)", "assay": "Agar well diffusion assay", "assay_type": "cell-based", "details": "cell-free supernatant, medium MRS", "protocol": "as §1, §2, §3"}, "[12]": {"test_system": "Klebsiella pneumoniae subsp. pneumoniae KCCM 11418", "assay": "Agar well diffusion assay", "assay_type": "cell-based", "details": "cell-free supernatant, medium NB", "protocol": "as §1, §2, §3"}},
  "data": [
    {"substance": "NH2-X-Ala-Trp-Tyr-Asp-Ile-Arg-Lys-Leu-Gly-Asn-Lys-Gly-Ala [RX7 bacteriocin, Bacteriocin of approximately 5 kDa produced by Bacillus amyloliquefaciens RX7; homologous to lantibiotic haloduracin A1]", "values": [
      {"measurement": "pH range in which full activity was observed", "setting": "[1]; 2 h at 37°C at the given pH, readjusted to pH 7, activity against L. monocytogenes ATCC 19114", "value": "3–8"},
      {"measurement": "Residual activity (%)", "setting": "[1]; pH 1 (1 N HCl/1 N NaOH), readjusted to pH 7", "value": 80, "unit": "%"},
      {"measurement": "Residual activity (%)", "setting": "[1]; pH 2 (1 N HCl/1 N NaOH), readjusted to pH 7", "value": 90, "unit": "%"},
      {"measurement": "Residual activity (%)", "setting": "[1]; pH 3 (1 N HCl/1 N NaOH), readjusted to pH 7", "value": 100, "unit": "%"},
      {"measurement": "Residual activity (%)", "setting": "[1]; pH 4 (1 N HCl/1 N NaOH), readjusted to pH 7", "value": 100, "unit": "%"},
      {"measurement": "Residual activity (%)", "setting": "[1]; pH 5 (1 N HCl/1 N NaOH), readjusted to pH 7", "value": 100, "unit": "%"},
      {"measurement": "Residual activity (%)", "setting": "[1]; pH 6 (1 N HCl/1 N NaOH), readjusted to pH 7", "value": 100, "unit": "%"},
      {"measurement": "Residual activity (%)", "setting": "[1]; pH 7 (1 N HCl/1 N NaOH)", "value": 100, "unit": "%"},
      {"measurement": "Residual activity (%)", "setting": "[1]; pH 8 (1 N HCl/1 N NaOH), readjusted to pH 7", "value": 100, "unit": "%"},
      {"measurement": "Residual activity (%)", "setting": "[1]; pH 9 (1 N HCl/1 N NaOH), readjusted to pH 7", "value": 90, "unit": "%"},
      {"measurement": "Residual activity (%)", "setting": "[1]; pH 10 (1 N HCl/1 N NaOH), readjusted to pH 7", "value": 80, "unit": "%"},
      {"measurement": "incubation time for complete bactericidal action (no colony formation on TSB agar)", "setting": "[2]", "value": 2, "unit": "h"},
      {"measurement": "Inhibition zone (mm)", "setting": "[3]", "value": "++ (less than 20 mm)"},
      {"measurement": "Inhibition zone (mm)", "setting": "[4]", "value": "++ (less than 20 mm)"},
      {"measurement": "Inhibition zone (mm)", "setting": "[5]", "value": "+ (less than 10 mm)"},
      {"measurement": "Inhibition zone (mm)", "setting": "[6]", "value": "++ (less than 20 mm)"},
      {"measurement": "Inhibition zone (mm)", "setting": "[7]", "value": "+ (less than 10 mm)"},
      {"measurement": "Inhibition zone (mm)", "setting": "[8]", "value": "++ (less than 20 mm)"},
      {"measurement": "Inhibition zone (mm)", "setting": "[9]", "value": "++ (less than 20 mm)"},
      {"measurement": "Inhibition zone (mm)", "setting": "[10]", "value": "++ (less than 20 mm)"},
      {"measurement": "Inhibition zone (mm)", "setting": "[11]", "value": "+ (less than 10 mm)"},
      {"measurement": "Inhibition zone (mm)", "setting": "[12]", "value": "+ (less than 10 mm)"}
    ]}
  ]
}
